These results are taken from patent US20250188151A1, “C-JUN ANTAGONIST PEPTIDES” (The University of Bath, priority 2022, published 2025).

The test deals with T1, cFos bZIP domain (Homo sapiens, UniProt P01100, S177Y).
T1 construct: His-SUMO (N, cleaved yes); made in house; host or cells: E. coli
T1 sequence (P01100 with tags, fused parts or gaps S177Y): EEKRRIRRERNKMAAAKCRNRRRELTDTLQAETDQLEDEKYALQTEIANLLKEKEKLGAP
In words: CD spectra/thermal denaturation with cFos bZIP (off-target). The test is classed as binding. The following applies: CD spectra and thermal denaturation. The procedure: (FIG. 11D). Although this represented a negligible 1.3° C. increase in heterodimer Tm, there was crucially a much larger ΔTm for HingeW/cJun relative to the component peptide denaturation profiles than for A-FosW/cJun. The low thermal stability of the HingeW homodimer results in no observable lower baseline prior to the transition such that the Tm for this component, and thus the average, cannot be determined. However, this ΔTm can be estimated to be ˜40° C., compared to 27.5° C. for A-FosW/cJun. The TBS screen has therefore led to an optimised reduction in homodimersation more so than increased heterodimerisation with the target. This ensures that more antagonist is available as free monomer in solution and therefore in a target-dimerisation competent state. Another difference between the two denaturation profiles is the presence of a double transition for the A-FosW/cJun heterodimer, with a smaller initial transition occurring at ˜30° C.

B1: HingeW (peptide)
peptide: MASLEQRAEELARENEELEKEAEELVVEEDVLEEEIEQLEERNYALRKEIEDLQKQLEKLGAPHHHHHH
notes: Recombinant, capped (MAS at the N-terminus, GAP at the C-terminus) and C-terminally 6xHis-tagged, 69 amino acids; also called peptide 1
Turning to B1, the “interaction with cFos bZIP” value is recorded as “no interaction”.
